Two substances from article PMC10869273 can be followed below.

Common to all, as to assay: BLI
For assay [1], the target named is H1 Caledonia.
Assay [2] has as its target H3 Panama.
The target of assay [3] is H2 Japan.
Assay [4] has as its target H5 Vietnam.
The target of assay [5] is H3 Victoria.
In assay [6] the target is HA H1 Solomon (A/Solomon Islands/3/2006(H1N1)). The conditions noted are these: monovalent Fab.

The term Kd denotes a measure of binding affinity in units of concentration. For the substance MEDI8852 VH E65P Fab, the Kd in assay [1], in assay [2], in assay [3], in assay [4] and in assay [5] was < 1 pM in each case.
With “MEDI8852 unmutated common ancestor (UCA) Fab (wild-type) VH:K58S; VH:V65P; VL:G95P”, the Kd in assay [6] is 50000 pM.
